According to patent publication US20050100554A1 (published 2005):

Assays:
[1] = biological target: the molecule itself; assay: Y2H; INT ID 393
[2] = biological target: T1, CKM (human, UniProt P06732 1-381); assay: Y2H; INT ID 403
T1 construct: also called MARK4

[3] = biological target: T2, tumor necrosis factor, alpha-induced protein 1 (endothelial) (human, UniProt Q13829 1-316); assay: Y2H; INT ID 402
T2 construct: also called TNFAIP1; cbe_3705944
T2 sequence: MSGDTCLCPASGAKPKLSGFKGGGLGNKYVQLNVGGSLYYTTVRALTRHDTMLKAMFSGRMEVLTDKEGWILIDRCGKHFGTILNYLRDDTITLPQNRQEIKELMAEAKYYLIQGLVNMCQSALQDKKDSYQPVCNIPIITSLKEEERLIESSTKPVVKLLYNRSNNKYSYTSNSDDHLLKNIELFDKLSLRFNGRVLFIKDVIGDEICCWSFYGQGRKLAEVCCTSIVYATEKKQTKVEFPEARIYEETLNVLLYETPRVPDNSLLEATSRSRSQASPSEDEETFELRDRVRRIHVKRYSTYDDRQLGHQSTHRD

[4] = biological target: T3, TNNC1 (human, UniProt P63316 1-161); assay: Y2H; INT ID 407
T3 construct: also called cbe_4267981

[5] = biological target: T4, yeast Sec31p homolog (human, UniProt O94979 1-1220); assay: Y2H; INT ID 408
T4 construct: also called KIAA0905; cbe_4383836
T4 sequence: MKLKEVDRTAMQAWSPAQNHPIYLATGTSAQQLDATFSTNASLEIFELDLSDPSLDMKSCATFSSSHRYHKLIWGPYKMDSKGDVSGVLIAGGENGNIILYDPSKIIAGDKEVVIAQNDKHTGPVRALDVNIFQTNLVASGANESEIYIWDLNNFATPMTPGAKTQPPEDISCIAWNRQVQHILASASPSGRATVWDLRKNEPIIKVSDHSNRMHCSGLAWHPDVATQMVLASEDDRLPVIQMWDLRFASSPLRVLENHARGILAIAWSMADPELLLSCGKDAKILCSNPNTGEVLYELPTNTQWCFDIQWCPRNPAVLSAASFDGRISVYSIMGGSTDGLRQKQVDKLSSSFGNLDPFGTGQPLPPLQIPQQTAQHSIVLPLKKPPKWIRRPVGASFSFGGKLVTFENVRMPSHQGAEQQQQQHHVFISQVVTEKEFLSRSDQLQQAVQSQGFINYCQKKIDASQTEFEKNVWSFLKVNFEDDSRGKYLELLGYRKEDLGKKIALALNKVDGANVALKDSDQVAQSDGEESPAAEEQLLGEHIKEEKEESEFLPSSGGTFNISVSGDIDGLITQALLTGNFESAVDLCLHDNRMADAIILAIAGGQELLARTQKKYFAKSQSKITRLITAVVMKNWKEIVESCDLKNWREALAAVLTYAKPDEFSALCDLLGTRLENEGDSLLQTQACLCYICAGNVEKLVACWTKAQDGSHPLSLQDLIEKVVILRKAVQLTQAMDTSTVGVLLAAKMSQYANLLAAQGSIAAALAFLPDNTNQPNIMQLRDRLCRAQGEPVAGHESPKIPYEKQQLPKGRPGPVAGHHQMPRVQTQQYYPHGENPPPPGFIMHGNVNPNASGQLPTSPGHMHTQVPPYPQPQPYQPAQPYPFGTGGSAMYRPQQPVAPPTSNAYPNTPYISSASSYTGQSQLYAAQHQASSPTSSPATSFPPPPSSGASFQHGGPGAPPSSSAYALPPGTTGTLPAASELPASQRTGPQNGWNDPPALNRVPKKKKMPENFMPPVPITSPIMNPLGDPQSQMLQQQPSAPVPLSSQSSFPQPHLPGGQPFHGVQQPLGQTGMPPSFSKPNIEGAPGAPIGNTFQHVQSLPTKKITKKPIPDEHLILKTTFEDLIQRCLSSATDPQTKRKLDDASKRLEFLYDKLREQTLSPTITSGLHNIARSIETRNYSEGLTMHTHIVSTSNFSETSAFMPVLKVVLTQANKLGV

[6] = biological target: T5, hypothetical protein FLJ22729 (human, UniProt Q96QE5 203-360); assay: Y2H; INT ID 398
T5 construct: also called cbe_1807361
T5 sequence: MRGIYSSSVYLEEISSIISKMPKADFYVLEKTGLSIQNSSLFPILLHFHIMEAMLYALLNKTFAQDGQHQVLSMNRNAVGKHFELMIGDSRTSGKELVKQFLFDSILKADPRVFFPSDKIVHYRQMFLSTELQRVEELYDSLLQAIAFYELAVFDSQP

[7] = biological target: T6, kinesin-associated protein 3 (human, UniProt Q92845 1-792); assay: Y2H; INT ID 406
T6 construct: also called KIFAP3; cbe_4138433

Measured: binding result

T6 sequence (Q92845 whole entry): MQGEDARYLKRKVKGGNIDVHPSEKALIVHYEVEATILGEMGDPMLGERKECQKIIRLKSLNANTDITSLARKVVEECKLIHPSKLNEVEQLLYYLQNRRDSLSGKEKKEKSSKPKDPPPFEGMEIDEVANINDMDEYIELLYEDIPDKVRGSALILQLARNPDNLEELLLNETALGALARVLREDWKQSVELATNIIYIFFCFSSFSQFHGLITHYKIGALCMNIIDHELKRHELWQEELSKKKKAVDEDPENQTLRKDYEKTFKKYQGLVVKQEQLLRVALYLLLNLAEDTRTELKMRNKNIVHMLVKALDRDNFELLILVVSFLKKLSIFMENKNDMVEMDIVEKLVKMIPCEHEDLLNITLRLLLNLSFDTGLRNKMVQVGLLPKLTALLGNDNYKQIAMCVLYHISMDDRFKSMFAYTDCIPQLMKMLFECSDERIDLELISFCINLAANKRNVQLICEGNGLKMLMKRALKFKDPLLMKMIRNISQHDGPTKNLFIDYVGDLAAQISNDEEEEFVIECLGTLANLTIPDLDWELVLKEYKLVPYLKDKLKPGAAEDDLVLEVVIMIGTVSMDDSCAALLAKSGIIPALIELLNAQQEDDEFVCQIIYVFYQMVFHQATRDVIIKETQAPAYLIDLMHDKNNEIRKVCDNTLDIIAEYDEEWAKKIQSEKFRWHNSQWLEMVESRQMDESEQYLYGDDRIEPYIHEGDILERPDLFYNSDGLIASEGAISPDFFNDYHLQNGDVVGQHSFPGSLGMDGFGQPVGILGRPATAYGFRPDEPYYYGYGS
T1 sequence (P06732 whole entry): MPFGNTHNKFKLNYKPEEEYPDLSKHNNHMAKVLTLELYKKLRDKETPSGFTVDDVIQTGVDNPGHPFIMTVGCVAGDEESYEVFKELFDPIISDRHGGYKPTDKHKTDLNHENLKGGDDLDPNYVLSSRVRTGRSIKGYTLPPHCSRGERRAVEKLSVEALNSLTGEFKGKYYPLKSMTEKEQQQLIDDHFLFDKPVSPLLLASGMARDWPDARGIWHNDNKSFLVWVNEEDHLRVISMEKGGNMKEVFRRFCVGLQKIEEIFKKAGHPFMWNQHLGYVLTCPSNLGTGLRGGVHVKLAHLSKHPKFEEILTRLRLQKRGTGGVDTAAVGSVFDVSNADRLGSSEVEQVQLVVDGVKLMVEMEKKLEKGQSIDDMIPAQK

B1: Human Papillomavirus 1a E1-E4 (other)
chain: MADNKAPQGLLGLLQYTPTTQPYPRVTPPSNRRPSTTPNSQDRGRPRRSDKDSRKHLYADGLTDGEDPEVPEVEDEEKENQRPLGHPDLSLLRETLEVYTQRLKRDILQDLDDFCRKLGIHPWSV
notes: also called HPV 1a E1-E4; cbe_251740
binds: all assays above
